The values below come from the domain aggregation screens of Martell et al. (2025).
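Also: 20 min heating vs room temperature control held 20 min.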

This data set can be described thus: soluble fraction after stress (log2 fold change); higher = more stays soluble; pooled small domains, quantitative proteomics. As to conditions: stress: 75 degC.
On to “HMSETLESYTTRLKQLEEIADSFQGVDKTFAIQAGREIRVMVVPEQISDDDMILLARDISNQIEENLDY”, for which the “soluble fraction (log2)” value is -0.234.

“HMSEVIYVAEDNVGQRIDVFLVNKLVDASRANIQKNIVDGVILVNNKNVKANYKLRLGDVVEIRTQ”: the “soluble fraction (log2)” value was -1.38. For the sequence “HMSEVPAAVLVTGGSINLREAPSTDATIIDVAQVGEKMTVLAEKNSWYQVSRGGRNVWVASWVVDPLT”, the “soluble fraction (log2)” value is -0.066. Take “HMSEVTYQETLRLLRRAIDVLPQQSRQIILLGLSGKNNNEVAEMLGISVNTVKTLKKGAYKSLRNSL”: the “soluble fraction (log2)” value is -1.87. In the case of “HMSEYITEGWLREKFGLGWGTEVHLPLDSRLTPAAHQLLEERKIVIKYIDAEGRVFNPDKSGEEAPVQ”, the “soluble fraction (log2)” value was -0.41. For the sequence “HMSEYVIVTGEKVNLRVGPGMDYEIAGQVVKGDKLELLASEGDWSKVKTGSGSIYYISSSLVQKA”, the “soluble fraction (log2)” value is -0.157. On to “HMSFDGFSDRLKSVLNSGKYTQKEAAEKINISEYSFTKYLNGRIPQTEILYKIARLYNKSMEWLLTGKDPI”, for which the “soluble fraction (log2)” value was -2.74.

Take “HMSFGWELYKGKEGIADTDLHPSGWIRIADKRVFAVSEGEFIEKGLEIIVLSVDGNRIVVRELK”: the “soluble fraction (log2)” value is -1.93. Regarding “HMSFGWETLEGKEGVTDTDLHPSGWVKVGDEKIFVVSQGEFLGKGTDIVVVSVDGNRVVVKELI”, the “soluble fraction (log2)” value is -0.998. In the case of “HMSFKQARFMMDAANGKALAWLYSHAEVLDRKDQGENIEIHVMISPADLSRFVNAFGYQPVQS”, the “soluble fraction (log2)” value is -1.07.

With “HMSFMFEISVIRSQYNMQDPESKTGFYNAIAKKLLEFPEKLERDNYTEAVAREYMIPETDLKNLVNSMGG”, the “soluble fraction (log2)” value was -3.12. Next, “HMSFNGTILSNYQKTYPNLAKFTYDQANDALVYEGNFIKLNGYGLSRIDPVFFNMNPDEIFIFIKNG”: -3.85; “HMSFNTNENKNLLWELMNKHNLFKDIDNQHYQEVQKLFEEEIVFISNNNKSLDLVEQNKKFLSSIITKLNK”: -1.84.

Take “HMSFPQVELNTNKGRIVLELNSEKAPKTVANFLEYVRDGFYDGVIFHRVIDGFMIQGGGFDENFKEKA”: the “soluble fraction (log2)” value was -0.6. Regarding “HMSFSPYLVRVSITDLNIRKGPGTNYAKTGKFTGKGVFTIVEMQTGKGSDTGWGRLKSGAGWISLDYTEKI”, the “soluble fraction (log2)” value is -3.47. Turning to “HMSFSQNIGKRIREERLRLNLTQEKLAEDVNLSMAYIGQVERGDRSLTLDNLIIVAKRLGVTIDYLLS”, the “soluble fraction (log2)” value is -4.13. Turning to “HMSFTSQSVLIEIVRGTTQLTPLAAAVGANKREVVLAVHRLKQRGLVVSAGLGQYAATEAGRAFLTAGREV”, the “soluble fraction (log2)” value is -3.43. In the case of “HMSFYSVVISQDGSMLVAENRNEIYSNEELLELASEVNEKTGTIGTIGSLMYYKADKGGYTLITFLDNS”, the “soluble fraction (log2)” value was -4.18. As to “HMSGALDTVVGIRMLKLLSTPIEKSKAFQVGIINKDGKKLRDPTSGERQHYTFLNRFVFKVQYALMRS”, the “soluble fraction (log2)” value was -0.549.

“HMSGDYRPLYPNLPESEKSEAFNLLAGSALPARLDDRTGDIMVPADRYYEARMILANAGFAD”: the “soluble fraction (log2)” value was 0.17. Regarding “HMSGEMGIIVAKRLPIRSEPDELATRAFVLKAGTRVKIVKHLNGWLEIVHDGKAGYVQDLEVYVRVIG”, the “soluble fraction (log2)” value was -0.806.

Regarding “HMSGEPVKSTLPGNVFKILVAVGDSVKKGQRMFVLEAMKMEIDVNAPKDGLVTSIEVQQGQTVANGQILAK”, the “soluble fraction (log2)” value is -0.0981. “HMSGIESIVIPLKGLDFDMISSTLTPQLKQAIKYDKQSDSIILVGTNAKVNIIAKQVNAMVEVYKLKT”: the “soluble fraction (log2)” value was -1.81. Next, “HMSGIGTTIKMLRENKNISQEELGNVLGVSDKTISSWEINRTEPKMGIVQLLADYFGVSTDYLIKG”: -0.447. With “HMSGILINGELYKPGEQMSLKQRLSIQARIQMQGEDTVKPEMLKDFYNSGGPLSKEESSEYMKSQN”, the “soluble fraction (log2)” value is -0.515. Turning to “HMSGIQNNFITRLKKVLAPTIGIAEEISDLLNISIDSAYRRIRGETDFTFEEIYIITRKHKISIDEIYG”, the “soluble fraction (log2)” value is -3.88.

As for “HMSGIVPAAPPLRPDLDIKWHTGDKVRHAKWGEGTIVSVKGEGEETELKIAFPGQGIRPFMQKYAPITR”, the “soluble fraction (log2)” value turned out to be 0.218.

For “HMSGLEDIKKKILEDAGIKKGSVKFVKVDKDYDDGIWKYEIDFVYDGKEYEYEIEVETGKILSRKTEKSD”, the “soluble fraction (log2)” value stood at 0.00588.

For “HMSGLVPAIGTKGEEGYIRESDIPGSNVKNPEEALAYMEWLKTQPSELLIPLYDEQGNVIGQFAVS”, the “soluble fraction (log2)” value was determined as 0.461. Regarding “HMSGMEKLAIQEIEKEIKSFVKGDILIELTGKNRATAYVSEKNVGALIGKKGERINSIEKRLGVGIDVRPY”, the “soluble fraction (log2)” value was -0.23. With “HMSGMNSDHRVNGNIHTFLIQHDLGTKWSVFTEQLLKQVFRSFLPDKELNFQTTDSTVILKVSLGSDFNEH”, the “soluble fraction (log2)” value is -0.0399.

For “HMSGPAEDLLAIEGMDKELAYELAARGIRTRDELADQSLDELEAVPGLDPVRAGQLIMAARAHLFENAGQ”, the “soluble fraction (log2)” value stood at 0.0744. Turning to “HMSGRSVSYSEFMSRVEAGQVSSVTLDGERVEVTGSDGSRYVTIAPSDATLTDKLVAKGVEVRADP”, the “soluble fraction (log2)” value came out at 0.462. Next, “HMSGSKEQQIVILNNILERQLQAFGLQGNREFPMVTLKNIYNSLSKIIENAGLKNVENYFVNPEQGKQM”: -0.0735; “HMSGTFIGGELVKPGEPLTPMQRAAITMGLQMGNTYSPEIMEKYNNAGGSPSKEEFENYQKNKS”: 0.216; “HMSHGFFELKTTQKEALIKLLDSHPNFTHTKTEADLTTAFLKLPMDAEQFNKLLFTNGIVLSHLVKRK”: -0.581. For “HMSHGYVEMQAKDDQVLLAALKNHPWFEKVSIDEETGLTKAILTQPIEAEELNSMLFEKGIVLSHLVKRK”, the “soluble fraction (log2)” value was determined as 0.288. On to “HMSHISLGQRYKIEGYLQINLKRTQIAKEIGLPKKTVNQEIKRNSNPQTGIYKAEEAHQLYLDRMQKKRK”, for which the “soluble fraction (log2)” value is -0.335. Next, “HMSHKYKLTVPETGEGTRVDKFLSSALTELSRTRLKSLIEEGQVTLGGVKLTNPSHRVKSGDELNIEIPVP”: 0.018. “HMSHPNAPLTPEGRRRLAVLIVEDGWTIRRAAERFQVSPATASKWARRYRAGESLTDRSSRP”: the “soluble fraction (log2)” value is -1.85.

Consider “HMSHSDMEEWTDAVRSRRKKLGLTQVQIARRLGVTSHHFSQIESGRTIPSASLQIEIDRLLKNWND”, for which the “soluble fraction (log2)” value was -1.73.

Regarding “HMSHSVLIDISQLRIGMYIQLDVGWMHHPFPVSSFRVASLEQIEALRTLNLAQVRYFPAKSDPV”, the “soluble fraction (log2)” value was -3.51. As to “HMSIAEMSGARKSAILLLALDEDSAAEIFKYLSAGEVQEISMEMAKLNQVSHDDMKAVLEAFHKETEEFV”, the “soluble fraction (log2)” value is -0.821. “HMSIAKIIGDRIRAYRNQKGWSQEYLAEKADVHHTYIGQLERGEKNATIESISKIAGALGVSLSRLFEN”: the “soluble fraction (log2)” value is -0.659. In the case of “HMSIEHVPGYTTLSKREQEIVHALLTRKTPEELADDLSISINTLNKHISHIYHKLGIRGRMQLFDYA”, the “soluble fraction (log2)” value is -1.1. With “HMSIEIKTIDVKHADLFQLQDILRNLYPELNIVPDQRNNKLILQGKRELLVEAERLTLQLDTE”, the “soluble fraction (log2)” value stood at 0.248. For “HMSIESPEEFNAKFPPGSEIYATNIQKNAIVQSPANAKGDVEILANSMRLTINFRFISKRDT”, the “soluble fraction (log2)” value is -1.6. Next, “HMSIGPQMAGRRVLSGDLIARLEAFEGTVVLGRGVAREDALLIATQAGHVRWEPASRRLWVDSTA”: -2.38; “HMSIHPRDKADLGTALSKWKKGALDDKQLELEVARVFMRTYGKKLEGQALNKAVAAWVAALTQSKK”: -0.171; “HMSINIDEEKKILGPNADQIIKGITTWGQGLVSKGIWSDADFEEFKIFAATGNGINALNKVRKYY”: -0.338. Next, “HMSIQMPDLSITPVTDAKKKIESLQLQYKEVGEYNDSVIAGYVIRTEPASGSYLNEDEEVIIYVSKG”: -0.776. Consider “HMSISEFNYTEFNGLVEKGQVSEVTISGREIEGRLTSGESFKTYSPETDNSALVGDLLKNNVKINGKP”, for which the “soluble fraction (log2)” value is 0.0159.

With “HMSITKDNLSIGTNIRISGFSDIGRIISIPNKGNQVQVQIGSAKMNIKINSIVEIIKEEKDFNKNISN”, the “soluble fraction (log2)” value is -1.48. “HMSIYMNIYNEFKKYIIANVYKYDDKLPSVRSIALEYGINPNTVQRAFQLLEDEGYIKTISKKGVYVNYR”: the “soluble fraction (log2)” value was -0.745. With “HMSKAYLSVESNISGARVFVDGQKEGTTPLSDVLLSAGEHLILVKKQGYETYQKRVRFQKGRSMSLYVDLS”, the “soluble fraction (log2)” value is -0.0864. Turning to “HMSKDQKKFFIEIVSIRGFGSQIGISILNKLSIPQIINAIKTQNKKEISSIPGIGQKMTERLILELNNKFK”, the “soluble fraction (log2)” value is -0.183. Regarding “HMSKININTITESELKELPISTVKQKAIQDYLIDRGFISNIYDLLDIKEITSDDVSLLKKVVNVKLPY”, the “soluble fraction (log2)” value is -0.489. For the sequence “HMSKIVPVAYSQFLKDVKNGNVSQVEIRGNNIKGINNNGSSFSTYAPNDLSLIDKLEKSNVEIIVMPLE”, the “soluble fraction (log2)” value is -0.368. “HMSKKLLVLQTSDDAKAKDVLSQNGYQLDDGDKLSIIETEQTKMADVIKLLSDNAIDIEDVQHVH”: the “soluble fraction (log2)” value was 0.14.

Consider “HMSKLQETEIPVALEVEKIPGLSNELKQKLLKIKPQTIGQASRISGITPAAISILMIYIKKNESISAVK”, for which the “soluble fraction (log2)” value is -1.9. “HMSKLQKTKYAGVYFTEDTQTRVKTYVARIVLAGIIDTEVVVGHSNDQHRTNAAIAYQRRLELIQEAKN”: the “soluble fraction (log2)” value is -4. On to “HMSKLSLREIVKKFEEQIIQLHKRGLNHSEISREIVTKNSIDLGDSHIDSLRRAISVHLQTP”, for which the “soluble fraction (log2)” value was -0.755. Consider “HMSKPIREVAYETLKNAIVTGEIPAGSRIVETEYAERMHISRTPLREALRKLERDGLVEYVVRRGVVVRAF”, for which the “soluble fraction (log2)” value is -1.63. With “HMSKPTLTLKSNAYPYNLNGERINNYLGFTYIKKGATLNYQGSKRINGQNYYYIGDGAYIKNTTVGSTNN”, the “soluble fraction (log2)” value is -1.23. Turning to “HMSKQDRRIRRTRRLLKESLIQLMQEKEFMNISVREVTERADLNRGTFYLHYQDTRHLLQDIENETL”, the “soluble fraction (log2)” value is -3.3. Next, “HMSKQEFVDRLRVSLSGKISPASVEDNARYYEDYINTHIRLGEPEEDVLEGLGDPRLIARSIVAAESV”: -0.0989.

On to “HMSKQLGFKIKTARRKLNISQGDLSKKLEISPSYLNLIESGKRKVSTDLLMKASEILNLDLKKL”, for which the “soluble fraction (log2)” value is -0.966. For the sequence “HMSKQQFLDELAARLREEGAELLVAENLNFYRSYIEEEVAKGRSEEEVLAELGNPALIARSILDAAGF”, the “soluble fraction (log2)” value was -0.219. As for “HMSKSIELMNEIKKYIEEYYLQYRQSPSTTKIAEAVGIARGTAYKYLVEMSERNMIEYDGQEISTEVTRKY”, the “soluble fraction (log2)” value was -1.43. For “HMSKSKSEIDKDPHFWSSLFQRIGEGESLRKIAKDSKIPKSTLWAWIRNDPQLALRYSEAQQ”, the “soluble fraction (log2)” value is 0.0521.
